Positions of bridges follow the written chain, without caps; N, C: chain ends. Non-standard residues stand in square brackets, D forms with d. Residues, ends and D or L forms follow the SMILES beside them. dPhe(4-tBu) = CC(C)(C)c1ccc(C[C@@H](N)C(=O)O)cc1; dBip = N[C@H](Cc1ccc(-c2ccccc2)cc1)C(=O)O; Phe(4-Br) = N[C@@H](Cc1ccc(Br)cc1)C(=O)O; dPhe(4-Br) = N[C@H](Cc1ccc(Br)cc1)C(=O)O; dNMeF = CN[C@H](Cc1ccccc1)C(=O)O; hCit = NC(=O)NCCCC[C@H](N)C(=O)O; Cit = NC(=O)NCCC[C@H](N)C(=O)O; Nle = CCCC[C@H](N)C(=O)O; Aib = CC(C)(N)C(=O)O
B1: CTX-1257 (peptide)
peptide: Ac-RC[dA]R[dF]R[dF]C-NH2
modifications: disulfide 2-8
SMILES: CC(=O)N[C@@H](CCCNC(=N)N)C(=O)N[C@H]1CSSC[C@@H](C(N)=O)NC(=O)[C@@H](Cc2ccccc2)NC(=O)[C@H](CCCNC(=N)N)NC(=O)[C@@H](Cc2ccccc2)NC(=O)[C@H](CCCNC(=N)N)NC(=O)[C@@H](C)NC1=O
B2: CTX-1625 (peptide)
peptide: Ac-R[Nle]CH[dF]RFC-NH2
modifications: disulfide 3-8
SMILES: CCCC[C@H](NC(=O)[C@H](CCCNC(=N)N)NC(C)=O)C(=O)N[C@H]1CSSC[C@@H](C(N)=O)NC(=O)[C@H](Cc2ccccc2)NC(=O)[C@H](CCCNC(=N)N)NC(=O)[C@@H](Cc2ccccc2)NC(=O)[C@H](Cc2c[nH]cn2)NC1=O
B3: CTX-1618 (peptide)
peptide: Ac-R[Nle]C[hCit][dF]RWC-NH2
modifications: disulfide 3-8
SMILES: CCCC[C@H](NC(=O)[C@H](CCCNC(=N)N)NC(C)=O)C(=O)N[C@H]1CSSC[C@@H](C(N)=O)NC(=O)[C@H](Cc2c[nH]c3ccccc23)NC(=O)[C@H](CCCNC(=N)N)NC(=O)[C@@H](Cc2ccccc2)NC(=O)[C@H](CCCCNC(N)=O)NC1=O
B4: CTX-1293 (peptide)
peptide: Ac-RCGR[dF]RWC-NH2
modifications: disulfide 2-8
SMILES: CC(=O)N[C@@H](CCCNC(=N)N)C(=O)N[C@H]1CSSC[C@@H](C(N)=O)NC(=O)[C@H](Cc2c[nH]c3ccccc23)NC(=O)[C@H](CCCNC(=N)N)NC(=O)[C@@H](Cc2ccccc2)NC(=O)[C@H](CCCNC(=N)N)NC(=O)CNC1=O
B5: CTX-1202 (peptide)
peptide: {CH2CO}-[dA]H[dF]RWC-NH2
modifications: thioether N-6
SMILES: C[C@H]1NC(=O)CSC[C@@H](C(N)=O)NC(=O)[C@H](Cc2c[nH]c3ccccc23)NC(=O)[C@H](CCCNC(=N)N)NC(=O)[C@@H](Cc2ccccc2)NC(=O)[C@H](Cc2c[nH]cn2)NC1=O
B6: CTX-1607 (peptide)
peptide: Ac-R[Nle]C[Cit][dF]RWC-NH2
modifications: disulfide 3-8
SMILES: CCCC[C@H](NC(=O)[C@H](CCCNC(=N)N)NC(C)=O)C(=O)N[C@H]1CSSC[C@@H](C(N)=O)NC(=O)[C@H](Cc2c[nH]c3ccccc23)NC(=O)[C@H](CCCNC(=N)N)NC(=O)[C@@H](Cc2ccccc2)NC(=O)[C@H](CCCNC(N)=O)NC1=O
B7: CTX-1637 (peptide)
peptide: Ac-CGH[dF]RFC-NH2
modifications: disulfide 1-7
SMILES: CC(=O)N[C@H]1CSSC[C@@H](C(N)=O)NC(=O)[C@H](Cc2ccccc2)NC(=O)[C@H](CCCNC(=N)N)NC(=O)[C@@H](Cc2ccccc2)NC(=O)[C@H](Cc2c[nH]cn2)NC(=O)CNC1=O

Tests used:
human MC3R [1] = molecular target: T1, human MC3R (Homo sapiens, UniProt P41968); test: split-luciferase cAMP sensor assay, agonist mode (measurement window 1), hMC3R; type: cell-based; details: agonist mode, hMC3R stable cell line; for Emax: read-out: MC3R cAMP % max activation; for EC50: read-out: MC3R cAMP EC50
T1 construct: expressed in transfected cells; host or cells: HEK-293 cells stably expressing the GScAMP22F split-luciferase cAMP sensor (parent reporter line from Promega); MC3R clone generated in-house, G418 selection
T1 sequence (P41968 whole entry): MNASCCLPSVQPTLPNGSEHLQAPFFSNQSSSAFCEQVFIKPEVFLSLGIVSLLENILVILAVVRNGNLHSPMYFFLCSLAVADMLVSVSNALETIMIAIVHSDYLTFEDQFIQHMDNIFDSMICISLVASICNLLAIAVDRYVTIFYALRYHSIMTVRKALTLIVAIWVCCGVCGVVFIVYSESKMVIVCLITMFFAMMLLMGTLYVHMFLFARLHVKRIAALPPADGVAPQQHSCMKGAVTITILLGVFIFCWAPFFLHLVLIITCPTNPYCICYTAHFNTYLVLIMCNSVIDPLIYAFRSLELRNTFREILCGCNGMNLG
In short: (§1)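 EC50 values come from a four-parameter variable-slope fit of luminescence in measurement window 1, capturing direct peptide effects on receptor-expressing cells with a cAMP22f luciferase sensor. Cells were preloaded with 4% D-luciferin, serum-free medium; 20 μM forskolin normalized for cell number and transducer efficiency.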

human MC4R = molecular target: T2, human MC4R (Homo sapiens, UniProt P32245); test: split-luciferase cAMP sensor assay, agonist mode (measurement window 1), hMC4R; type: cell-based; details: for Emax: read-out: MC4R cAMP % max activation
T2 construct: host or cells: HEK-293 cells stably expressing the GScAMP22F split-luciferase cAMP sensor and hMC4R, G418 selection
T2 sequence (P32245 whole entry): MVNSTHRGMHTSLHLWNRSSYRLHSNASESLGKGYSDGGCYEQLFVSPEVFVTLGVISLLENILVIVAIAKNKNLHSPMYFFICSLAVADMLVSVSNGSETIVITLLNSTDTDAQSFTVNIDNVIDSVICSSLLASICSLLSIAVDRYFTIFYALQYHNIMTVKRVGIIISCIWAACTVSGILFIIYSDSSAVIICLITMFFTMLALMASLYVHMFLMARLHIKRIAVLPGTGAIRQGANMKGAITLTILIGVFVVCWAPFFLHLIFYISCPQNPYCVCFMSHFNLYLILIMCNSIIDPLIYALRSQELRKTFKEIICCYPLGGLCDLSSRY
In short: as §1

human MC3R [2] = molecular target: human MC3R (human, UniProt P41968 1-323); test: cell-based or functional assay
human MC3R (human, UniProt P41968 1-323), sequence (P41968 whole entry): as the sequence (P41968 whole entry) above

human MC4R receptor [3] = molecular target: T3, human MC4R receptor (human, UniProt P32245 1-332); test: cell-based or functional assay
T3 sequence (P32245 whole entry): as the sequence (P32245 whole entry) above

human MC4R receptor [4] = molecular target: T3, human MC4R receptor; test: cell-based or functional assay; remark: listed apart in the source
[5] = agonist mode, hMC4R stable cell line

| Molecule | Emax (human MC3R [1]) [%] | MC4R selectivity vs MC1R (human MC4R) | MC4R selectivity vs MC3R (human MC4R) | Emax (human MC4R; [5]) [%] | cAMP EC50 (human MC3R [2]) [nM] | cAMP EC50 (human MC4R receptor [4]) [nM] | % max activation (human MC3R [2]) [%] | also measured |
| --- | --- | --- | --- | --- | --- | --- | --- | --- |
| CC(=O)N[C@@H](CCCNC(=N)N)C(=O)N[C@H]1CSSC[C@@H](C(N)=O)NC(=O)[C@@H](Cc2c[nH]c3ccccc23)NC(=O)[C@H](CCCNC(=N)N)NC(=O)[C@@H](Cc2ccc(-c3ccccc3)cc2)NC(=O)[C@H](CCCNC(=N)N)NC(=O)[C@@H](C)NC1=O [CTX-1243, Arg-cyclo(Cys-D-Ala-Arg-D-Bip-Arg-D-Trp-Cys)] (Ac-RC[dA]R[dBip]R[dW]C-NH2; disulfide 2-8 (inferred)) | 7.7 | 0.21 | 0.38 | 32 |  |  |  |  |
| CCCC[C@H](NC(=O)[C@H](CCCNC(=N)N)NC(C)=O)C(=O)N[C@H]1CSSC[C@@H](C(N)=O)NC(=O)[C@@H](Cc2c[nH]c3ccccc23)NC(=O)[C@H](CCCNC(=N)N)NC(=O)[C@@H](Cc2ccc(Br)cc2)NC(=O)[C@H](CCCNC(=N)N)NC1=O [CTX-1232, Arg-Nle-cyclo(Cys-Arg-D-Phe(4-Br)-Arg-D-Trp-Cys)] (Ac-R[Nle]CR[dPhe(4-Br)]R[dW]C-NH2; disulfide 3-8 (inferred)) |  | 0.39 | 2.44 |  |  |  |  | MC3R cAMP % max activation (human MC3R [1]): (41%); MC4R cAMP % max activation (human MC4R; [5]): (46%); EC50 (human MC4R; agonist mode, hMC4R stable cell line, read-out: MC4R cAMP EC50): 2.4 nM |
| C[C@H]1NC(=O)[C@@H](NC(=O)[C@H](CCCNC(=N)N)NC(=O)COCCOCCNC(=O)COCCOCCNC(=O)CNC(=O)CCc2ccc(I)cc2)CSSC[C@@H](C(N)=O)NC(=O)[C@@H](Cc2c[nH]c3ccccc23)NC(=O)[C@H](CCCNC(=N)N)NC(=O)[C@@H](Cc2ccc(Br)cc2)NC(=O)[C@H](CCCNC(=N)N)NC1=O [CTX-1226, Arg-cyclo(Cys-D-Ala-Arg-D-Phe(4-Br)-Arg-D-Trp-Cys)] | 29 |  |  | 71 |  |  |  |  |
| CC(=O)N[C@@H](CCCNC(=N)N)C(=O)N[C@H]1CSSC[C@@H](C(N)=O)NC(=O)[C@@H](Cc2c[nH]c3ccccc23)NC(=O)[C@H](CCCNC(=N)N)NC(=O)[C@@H](Cc2ccc(C(C)(C)C)cc2)NC(=O)[C@H](CCCNC(=N)N)NC(=O)[C@@H](C)NC1=O [CTX-1242, Arg-cyclo(Cys-D-Ala-Arg-D-Phe(4-tBu)-Arg-D-Trp-Cys)] (Ac-RC[dA]R[dPhe(4-tBu)]R[dW]C-NH2; disulfide 2-8 (inferred)) | 2.8 | 0.64 | 0.08 | 5.8 |  |  |  |  |
| CC(=O)N[C@H]1CSSC[C@@H](C(N)=O)NC(=O)[C@H](Cc2ccccc2)NC(=O)[C@H](CCCNC(=N)N)NC(=O)[C@@H](Cc2ccc(Br)cc2)NC(=O)[C@H](CCCNC(=N)N)NC(=O)CNC1=O [CTX-1640, cyclo(Cys-Gly-Arg-D-Phe(4-Br)-Arg-Phe-Cys)] (Ac-CGR[dPhe(4-Br)]RFC-NH2; disulfide 1-7 (inferred)) | 27 | 3.72 | 3.09 | 100 |  |  |  | EC50 (human MC3R [1]): 10 nM |
| CC(=O)N[C@@H](CCCNC(=N)N)C(=O)N[C@H]1CSSC[C@@H](C(N)=O)NC(=O)[C@@H](Cc2c[nH]c3ccccc23)NC(=O)[C@@H](CCCNC(=N)N)NC(=O)[C@@H](Cc2ccccc2)NC(=O)[C@H](CCCNC(=N)N)NC(=O)[C@@H](C)NC1=O [CTX-1283, Arg-cyclo(Cys-D-Ala-Arg-D-Phe-D-Arg-D-Trp-Cys)] (Ac-RC[dA]R[dF][dR][dW]C-NH2; disulfide 2-8) | 7.8 | 0.03 | 0.12 | 55 |  |  |  |  |
| CC(=O)N[C@@H](CCCNC(=N)N)C(=O)N[C@H]1CSSC[C@@H](C(N)=O)NC(=O)[C@@H](Cc2c[nH]c3ccccc23)NC(=O)[C@H](CCCNC(=N)N)NC(=O)[C@H](Cc2ccc(Br)cc2)NC(=O)[C@H](CCCNC(=N)N)NC(=O)[C@@H](C)NC1=O [CTX-1215, Arg-cyclo(Cys-D-Ala-Arg-Phe(4-Br)-Arg-D-Trp-Cys)] (Ac-RC[dA]R[Phe(4-Br)]R[dW]C-NH2; disulfide 2-8 (inferred)) | 2.1 | 0.07 | 0.05 | 56 |  |  |  | EC50 (human MC3R [1]): 27 nM |
| CC(=O)N[C@@H](CCCNC(=N)N)C(=O)N[C@H]1CSSC[C@@H](C(N)=O)NC(=O)[C@@H](Cc2c[nH]c3ccccc23)NC(=O)[C@H](CCCNC(=N)N)NC(=O)[C@@H](Cc2ccccc2)N(C)C(=O)[C@H](CCCNC(=N)N)NC(=O)[C@@H](C)NC1=O [CTX-1272, Arg-cyclo(Cys-D-Ala-Arg-NMe-D-Phe-Arg-D-Trp-Cys)] (Ac-RC[dA]R[dNMeF]R[dW]C-NH2; disulfide 2-8 (inferred)) | 0.9 | 0.21 | 0.9 | 5.3 |  |  |  |  |
| B1 |  |  |  |  | 44 |  |  | MC4R selectivity vs MC1R (human MC4R receptor [3]): 0.02 |
| B2 |  |  |  |  |  | 38 |  | % max activation (human MC4R receptor [4]): 101% |
| {CH2CO}-[dA][Cit][dF]RFC-NH2 (thioether N-6) [CTX-1658] |  |  |  |  | > 10000 | > 10000 |  |  |
| B3 |  |  |  |  | 29 |  | 33 |  |
| B4 |  |  |  |  |  | 0.25 |  | % max activation (human MC4R receptor [4]): 87% |
| {CH2CO}-G[Cit][dF]RFC-NH2 (thioether N-6) [CTX-1655] |  |  |  |  | > 10000 | > 10000 |  |  |
| B5 |  |  |  |  | 130 | 0.65 | 101 | % max activation (human MC4R receptor [4]): 104%; MC4R selectivity vs MC1R (human MC4R receptor [3]): 0.89 |
| B6 |  |  |  |  | 14 |  | 47 |  |
| B7 |  |  |  |  | 68 |  | 98 |  |
| Ac-RCA[Cit][dF]R[dW]C-NH2 (disulfide 2-8) [CTX-1288] |  |  |  |  | 1250 | 77 | 36 | % max activation (human MC4R receptor [4]): 87%; MC4R selectivity vs MC1R (human MC4R receptor [3]): 3.75; MC4R selectivity vs MC3R (human MC4R receptor [3]): 16 |
| Ac-RC[Aib][Cit][dF]RWC-NH2 (disulfide 2-8) [CTX-1289] |  |  |  |  | 17 | 0.6 | 21 | % max activation (human MC4R receptor [4]): 93%; MC4R selectivity vs MC1R (human MC4R receptor [3]): 130; MC4R selectivity vs MC3R (human MC4R receptor [3]): 30 |
| {CH2CO}-[Aib][Cit][dF]RFC-NH2 (thioether N-6) [CTX-1652] |  |  |  |  | > 10000 | > 10000 |  |  |
